Laboratory results published in patent publication US20180265864, “Genome Engineering Methods Using a Cytosine-Specific CAS9” (Florida State University Research Foundation, Inc., published 2018).

How the values were obtained:
[1] = target: T1, AceCas9 (in E. coli) (Acidothermus cellulolyticus 11B) (UniProt A0LWB3); experiment: cell_activity
T1 sequence: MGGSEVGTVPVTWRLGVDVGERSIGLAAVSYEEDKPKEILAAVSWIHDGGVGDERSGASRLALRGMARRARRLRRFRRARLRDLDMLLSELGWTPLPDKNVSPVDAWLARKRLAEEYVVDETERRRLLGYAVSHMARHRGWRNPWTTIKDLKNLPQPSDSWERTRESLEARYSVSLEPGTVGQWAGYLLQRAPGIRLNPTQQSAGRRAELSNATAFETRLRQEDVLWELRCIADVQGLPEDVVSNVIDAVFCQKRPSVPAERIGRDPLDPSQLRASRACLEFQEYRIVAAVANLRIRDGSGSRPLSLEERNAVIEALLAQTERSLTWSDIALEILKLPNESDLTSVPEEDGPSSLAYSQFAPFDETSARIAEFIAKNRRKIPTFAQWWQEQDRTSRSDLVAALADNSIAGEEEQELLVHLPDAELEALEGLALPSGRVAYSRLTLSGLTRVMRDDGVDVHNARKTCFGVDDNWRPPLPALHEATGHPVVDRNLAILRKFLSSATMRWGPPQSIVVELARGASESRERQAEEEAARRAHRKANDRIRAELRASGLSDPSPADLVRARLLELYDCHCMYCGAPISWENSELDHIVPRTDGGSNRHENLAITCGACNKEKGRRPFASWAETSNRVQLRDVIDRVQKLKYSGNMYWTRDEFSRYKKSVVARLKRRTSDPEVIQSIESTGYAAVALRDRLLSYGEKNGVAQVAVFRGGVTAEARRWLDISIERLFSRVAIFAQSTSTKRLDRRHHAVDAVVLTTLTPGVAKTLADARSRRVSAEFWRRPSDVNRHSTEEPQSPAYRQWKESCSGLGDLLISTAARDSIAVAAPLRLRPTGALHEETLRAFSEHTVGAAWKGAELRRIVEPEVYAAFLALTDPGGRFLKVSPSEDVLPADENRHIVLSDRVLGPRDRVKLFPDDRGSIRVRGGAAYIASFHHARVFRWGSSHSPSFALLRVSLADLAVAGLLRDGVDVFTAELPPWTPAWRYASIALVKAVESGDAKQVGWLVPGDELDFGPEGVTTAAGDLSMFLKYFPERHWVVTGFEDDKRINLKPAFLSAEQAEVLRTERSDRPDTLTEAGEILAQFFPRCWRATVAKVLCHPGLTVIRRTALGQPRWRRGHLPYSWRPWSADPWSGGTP

AceCas9 (Type II-C Cas9) = target: T2, AceCas9 (Type II-C Cas9) (Acidothermus cellulolyticus 11B, UniProt A0LWB3 A0LWB3:1-1138); experiment: cleavage_in_vitro; 50 C; conditions: tags: C-terminal His6 (pET28b, E. coli Rosetta DE3); linear plasmid
T2 sequence: T1 sequence

sgRNA 22-nt spacer ; ccdB plasmid PAMWT
activity ([1]; E. coli ccdB selection): < 0.01 % survival

sgRNA 26-nt spacer ; ccdB plasmid PAMC(4,5)T
activity ([1]; [28,29], NNNTT PAM): < 0.001 % survival

sgRNA 26-nt spacer ; ccdB plasmid PAMWT
activity ([1]; E. coli ccdB selection): 13.6 % survival

B1: sgRNA 24-nt spacer (template bottom strand; RNA is reverse complement without promoter) ; pUC19 WT target, BamHI-linearized (ssRNA ; dsDNA)
RNA: GGUAGGAUGGCAAGAUCCUGGUAUGCUGGGGAGCCUGAAAAGGCUACCUAGCAAGACCCCUUCGUGGGGUCGCAUUCUUCACCCCCUCGCAGCAGCGAGGGGGUUC
DNA 1: GGTAGGATGGCAAGATCCTGGTATACACC
DNA 2: GGTGTATACCAGGATCTTGCCATCCTACC
activity (AceCas9 (Type II-C Cas9)): 0.53 min⁻¹
